Experiments:
Experiment in all cases: FACS on HEK293 cells transfected with the DDR1 variant
[1] = target: FLAG-tagged human DDR1 S175A variant (human, UniProt Q08345 19-913)
Experimental: (§1) Full length cDNA encoding FLAG-tagged human DDR1 variants were transiently transfected into HEK293 cells using standard procedures as known to one skilled in the art. To determine the capacity of antibodies to bind the DDR1 variants, antibodies were incubated with HEK293 cells transfected with plasmid encoding either wild type DDR1 or one of the point mutation variants. All cells were co-transfected with plasmid encoding GFP. The cells were analyzed by FACS as described herein for binding of the antibodies to wild type DDR1 and to DDR1 variants.

[2] = target: FLAG-tagged human DDR1 E113Q variant (human, UniProt Q08345 19-913)
Experimental: as §1

[3] = target: FLAG-tagged human DDR1 L110A variant (human, UniProt Q08345 19-913)
Experimental: as §1

[4] = target: FLAG-tagged human DDR1 R105A variant (human, UniProt Q08345 19-913)
Experimental: as §1

[5] = target: FLAG-tagged human DDR1 D68A variant (human, UniProt Q08345 19-913)
Experimental: as §1

Measured: binding result

Chain of FLAG-tagged human DDR1 E113Q variant (Q08345 other isoform, or with tags, fused parts or gaps E113Q E113Q limits assumed): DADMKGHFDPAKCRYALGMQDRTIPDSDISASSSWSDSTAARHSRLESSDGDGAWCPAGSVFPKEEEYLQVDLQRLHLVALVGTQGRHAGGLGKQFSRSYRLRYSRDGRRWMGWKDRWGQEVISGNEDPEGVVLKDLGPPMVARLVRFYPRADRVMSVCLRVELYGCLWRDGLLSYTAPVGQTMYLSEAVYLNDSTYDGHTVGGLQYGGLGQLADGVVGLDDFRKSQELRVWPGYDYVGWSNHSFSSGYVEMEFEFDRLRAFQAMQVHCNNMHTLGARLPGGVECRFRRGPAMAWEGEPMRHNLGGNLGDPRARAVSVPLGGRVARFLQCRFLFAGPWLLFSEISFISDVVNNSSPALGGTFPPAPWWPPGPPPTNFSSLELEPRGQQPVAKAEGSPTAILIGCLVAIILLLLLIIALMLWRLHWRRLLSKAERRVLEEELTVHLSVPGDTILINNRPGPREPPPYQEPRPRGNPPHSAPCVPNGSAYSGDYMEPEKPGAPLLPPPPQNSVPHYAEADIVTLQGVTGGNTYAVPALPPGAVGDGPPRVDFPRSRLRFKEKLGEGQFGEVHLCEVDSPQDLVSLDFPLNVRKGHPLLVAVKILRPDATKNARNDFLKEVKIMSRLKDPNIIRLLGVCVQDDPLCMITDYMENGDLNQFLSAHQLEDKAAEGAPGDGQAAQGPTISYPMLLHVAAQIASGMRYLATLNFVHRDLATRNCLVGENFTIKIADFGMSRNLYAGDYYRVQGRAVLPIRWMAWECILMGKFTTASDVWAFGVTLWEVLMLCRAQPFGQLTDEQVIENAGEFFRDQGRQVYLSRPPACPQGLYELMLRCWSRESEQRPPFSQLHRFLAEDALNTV
Chain of FLAG-tagged human DDR1 D68A variant (Q08345 other isoform, or with tags, fused parts or gaps D68A D68A limits assumed): as the sequence (Q08345 other isoform, or with tags, fused parts or gaps E113Q E113Q limits assumed) above, with D50A, Q95E counted along it
Chain of FLAG-tagged human DDR1 S175A variant (Q08345 other isoform, or with tags, fused parts or gaps S175A S175A limits assumed): as the sequence (Q08345 other isoform, or with tags, fused parts or gaps E113Q E113Q limits assumed) above, with Q95E, S157A counted along it
Chain of FLAG-tagged human DDR1 L110A variant (Q08345 other isoform, or with tags, fused parts or gaps L110A L110A limits assumed): as the sequence (Q08345 other isoform, or with tags, fused parts or gaps E113Q E113Q limits assumed) above, with L92A, Q95E counted along it
Chain of FLAG-tagged human DDR1 R105A variant (Q08345 other isoform, or with tags, fused parts or gaps R105A R105A limits assumed): as the sequence (Q08345 other isoform, or with tags, fused parts or gaps E113Q E113Q limits assumed) above, with R87A, Q95E counted along it

B1: antibody 20M102 (antibody, mouse IgG1, kappa, V domains shown)
VH: EVQLQQSGSELVKPGASVKMSCKASGYTFTDYFMKWVKQSHGKSLEWIGDINPNNGDTFYIQKFKGKATLTVDKSSSTAYMQLNSLTSEDSAVYYCSRDLAYWGQGTLVAVSS
VL: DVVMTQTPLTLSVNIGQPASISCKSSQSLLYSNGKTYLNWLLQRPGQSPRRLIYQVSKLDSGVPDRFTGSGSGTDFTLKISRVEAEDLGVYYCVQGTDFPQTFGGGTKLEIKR
notes: Mouse monoclonal IgG purified from hybridoma supernatant; also called anti-DDR1 antibody 20M102; hybridoma ATCC PTA-10051
binds: all assays above

Reference: patent US20110287011A1 (ONCOMED PHARMACEUTICALS, published 2011)
